Test results reported in IntAct's records for PubMed 12486103.

B1: Inhibitor of nuclear factor kappa-B kinase subunit beta (Homo sapiens), O14920 (parent)
chain: MSWSPSLTTQTCGAWEMKERLGTGGFGNVIRWHNQETGEQIAIKQCRQELSPRNRERWCLEIQIMRRLTHPNVVAARDVPEGMQNLAPNDLPLLAMEYCQGGDLRKYLNQFENCCGLREGAILTLLSDIASALRYLHENRIIHRDLKPENIVLQQGEQRLIHKIIDLGYAKELDQGSLCTSFVGTLQYLAPELLEQQKYTVTVDYWSFGTLAFECITGFRPFLPNWQPVQWHSKVRQKSEVDIVVSEDLNGTVKFSSSLPYPNNLNSVLAERLEKWLQLMLMWHPRQRGTDPTYGPNGCFKALDDILNLKLVHILNMVTGTIHTYPVTEDESLQSLKARIQQDTGIPEEDQELLQEAGLALIPDKPATQCISDGKLNEGHTLDMDLVFLFDNSKITYETQISPRPQPESVSCILQEPKRNLAFFQLRKVWGQVWHSIQTLKEDCNRLQQGQRAAMMNLLRNNSCLSKMKNSMASMSQQLKAKLDFFKTSIQIDLEKYSEQTEFGITSDKLLLAWREMEQAVELCGRENEVKLLVERMMALQTDIVDLQRSPMGRKQGGTLDDLEEQARELYRRLREKPRDQRTEGDSQEMVRLLLQAIQSFEKKVRVIYTQLSKTVVCKQKALELLPKVEEVVSLMNEDEKTVVRLQEKRQKELWNLLKIACSKVRGPVSGSPDSMNASRLSQPGQLMSQPSTASNSLPEPAKKSEELVAEAHNLCTLLENAIQDTVREQDQSFTALDWSWLQTEEEEHSCLEQAS
B2: Inhibitor of nuclear factor kappa-B kinase subunit alpha (Homo sapiens), O15111 (parent)
chain: MERPPGLRPGAGGPWEMRERLGTGGFGNVCLYQHRELDLKIAIKSCRLELSTKNRERWCHEIQIMKKLNHANVVKACDVPEELNILIHDVPLLAMEYCSGGDLRKLLNKPENCCGLKESQILSLLSDIGSGIRYLHENKIIHRDLKPENIVLQDVGGKIIHKIIDLGYAKDVDQGSLCTSFVGTLQYLAPELFENKPYTATVDYWSFGTMVFECIAGYRPFLHHLQPFTWHEKIKKKDPKCIFACEEMSGEVRFSSHLPQPNSLCSLVVEPMENWLQLMLNWDPQQRGGPVDLTLKQPRCFVLMDHILNLKIVHILNMTSAKIISFLLPPDESLHSLQSRIERETGINTGSQELLSETGISLDPRKPASQCVLDGVRGCDSYMVYLFDKSKTVYEGPFASRSLSDCVNYIVQDSKIQLPIIQLRKVWAEAVHYVSGLKEDYSRLFQGQRAAMLSLLRYNANLTKMKNTLISASQQLKAKLEFFHKSIQLDLERYSEQMTYGISSEKMLKAWKEMEEKAIHYAEVGVIGYLEDQIMSLHAEIMELQKSPYGRRQGDLMESLEQRAIDLYKQLKHRPSDHSYSDSTEMVKIIVHTVQSQDRVLKELFGHLSKLLGCKQKIIDLLPKVEVALSNIKEADNTVMFMQGKRQKEIWHLLKIACTQSSARSLVGSSLEGAVTPQTSAWLPPTSAEHDHSLSCVVTPQDGETSAQMIEENLNCLGHLSTIIHEANEEQGNSMMNLDWSWLTE

Variants of: B1
Settings: with ikba_human NFKBIA

| Variant | effect of a mutation on the interaction |
| --- | --- |
| K44A | decreasing interaction |

Variants of: B2
Settings: with ikba_human NFKBIA

| Variant | effect of a mutation on the interaction |
| --- | --- |
| K44M | disrupting interaction |
